According to patent US8404647B2, “Peptidylarginine deiminase (PAD) inhibitors” (Chiralix B.V., priority 2008, dated 2013):
Ends that are not written are not given here.

How the values were obtained:
PAD4 = PAD4 (Homo sapiens, UniProt Q9UM07); assay: Conversion (R to Cit) of substrate peptides by PAD4, mass spectrometry; type: biochemical; conditions: for Conversion (%): PAD4; for Conversion: Table 7, PAD4, test system with 3 times less enzyme; for Conversion by PAD4 (%): Table 10
Excerpt: From previous studies it was known that D-S-Q-F-A-F-R-G-A-S-A-S-D (designated here as L1: SEQ ID NO: 11) is a substrate for PAD2 and PAD 4. To obtain better substrates, and subsequently powerful inhibitors, we intended to identify structural elements that improve substrate properties. A set of 152 individual analog peptides was generated, each differing from L1 by one amino acid at one of the positions −4 to −1 or 1 to 4.
In Table 3 the conversion of each analog (R to Cit conversion) is depicted. Values of the analogs relate to the conversion of the analog compared to the conversion of L1 under standard conditions (100 means a conversion equal to L1, 50 means conversion of 50% of that of L1, 175 means conversion of 175% of that of L1). Numbers above 100 thus relate to amino acid substitutions that improve substrate properties.
Peptides of table 4 are represented by the following sequences SEQ ID NO: 22-31 and 33-46. Control peptide are represented by the following sequences SEQ ID NO: 11 as control L1 and SEQ ID NO: 32 as control L2. Unfortunately, a substantial number of designed peptides were too polar to be analyzed on our LC-MS system (indicated in Table 4 as n.t., not trapped on the column). We therefore also generated and tested these peptides containing two additional N-terminal F-residues to increase hydrophobicity. In this form peptides were trapped on the column and could be analyzed (see Table 5).
Based on the above results we designed 20 peptides containing multiple amino acids that improve substrate properties (see Table 7). The indicated peptides were synthesized and tested in order to identify the best substrate from this group. Here we used a test system with less enzyme (3 times less) compared to the experiments described above.
(§1) Conversion of arginine into citrulline in the substrate peptides by PAD2 or PAD4 using mass spectrometry was performed as follows. A candidate substrate peptide was incubated with a PAD as indicated for several hours at 37° C. The reaction was quenched by the addition with acetic acid. A sample was analysed on a Qtof mass spectrometer (Micromass, UK) and the mass spectrum was compared with that of the same peptide not treated with PAD. Normally, 2^+- and 3^+-ions are detected. The conversion (ΔM=0.98 Da) was calculated on the 2^+- and 3^+-ions individually, and subsequently averaged taking into account the relative peak height of the 2^+- and 3^+-signals (see FIG. 5).

PAD2 = PAD2 (Homo sapiens, UniProt Q9Y2J8); assay: Conversion (R to Cit) of substrate peptides by PAD2, mass spectrometry; type: biochemical; conditions: for Conversion (%): Table 9, PAD2; for Conversion by PAD2 (%): Table 10
PAD2, sequence (Q9Y2J8 whole entry): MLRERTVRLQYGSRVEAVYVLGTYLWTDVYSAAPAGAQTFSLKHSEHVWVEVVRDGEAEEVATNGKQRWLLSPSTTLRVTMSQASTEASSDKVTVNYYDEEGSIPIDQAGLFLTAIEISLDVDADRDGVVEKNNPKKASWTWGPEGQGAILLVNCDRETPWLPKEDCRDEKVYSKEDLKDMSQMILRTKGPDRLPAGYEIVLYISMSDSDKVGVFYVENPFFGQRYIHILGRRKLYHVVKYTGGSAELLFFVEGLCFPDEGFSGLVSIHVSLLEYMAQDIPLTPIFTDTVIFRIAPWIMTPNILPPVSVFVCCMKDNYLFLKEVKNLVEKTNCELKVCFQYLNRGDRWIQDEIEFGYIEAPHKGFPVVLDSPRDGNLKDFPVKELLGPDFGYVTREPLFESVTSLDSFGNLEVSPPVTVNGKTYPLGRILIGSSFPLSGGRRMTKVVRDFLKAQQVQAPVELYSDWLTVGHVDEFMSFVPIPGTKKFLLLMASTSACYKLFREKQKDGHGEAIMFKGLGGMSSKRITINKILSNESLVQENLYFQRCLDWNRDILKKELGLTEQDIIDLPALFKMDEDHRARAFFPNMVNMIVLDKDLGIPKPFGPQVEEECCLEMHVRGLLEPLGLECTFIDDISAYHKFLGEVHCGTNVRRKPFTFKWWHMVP
Description: In a similar fashion as for PAD4 we identified improved peptide substrates for PAD2. Again L1 was used as a lead compound. The set of 152 peptides from Table 3 was used and testing was performed as described before.
as §1

[1] = Table 5, peptides with two additional N-terminal F-residues

PAD4, sequence (Q9UM07 whole entry): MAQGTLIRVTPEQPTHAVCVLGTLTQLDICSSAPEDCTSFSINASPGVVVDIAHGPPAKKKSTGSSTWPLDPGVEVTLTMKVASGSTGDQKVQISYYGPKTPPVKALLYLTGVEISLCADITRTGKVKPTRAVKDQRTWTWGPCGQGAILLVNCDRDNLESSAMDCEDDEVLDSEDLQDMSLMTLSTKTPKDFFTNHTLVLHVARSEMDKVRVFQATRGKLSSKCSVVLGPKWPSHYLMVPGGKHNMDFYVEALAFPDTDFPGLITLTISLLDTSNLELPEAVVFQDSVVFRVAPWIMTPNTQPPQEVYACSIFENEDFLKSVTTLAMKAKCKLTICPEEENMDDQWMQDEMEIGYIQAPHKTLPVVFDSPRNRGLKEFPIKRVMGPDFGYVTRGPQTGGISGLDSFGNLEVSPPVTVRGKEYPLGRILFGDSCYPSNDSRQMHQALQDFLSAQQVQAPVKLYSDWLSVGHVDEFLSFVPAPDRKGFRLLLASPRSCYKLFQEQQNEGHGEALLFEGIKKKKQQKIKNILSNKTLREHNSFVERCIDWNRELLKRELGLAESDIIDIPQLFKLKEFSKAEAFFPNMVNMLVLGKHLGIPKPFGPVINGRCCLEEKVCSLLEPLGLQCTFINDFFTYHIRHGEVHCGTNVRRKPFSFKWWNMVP

F-F-D-S-K-K-H-D-R-D-F-L-Y-S-D (FFDSKKHDRDFLYSD) [Peptide 0612-33]
Conversion (%) (PAD4; [1]): 100%

D-S-H-H-F-H-R-E-Y-I-F-S-D (DSHHFHREYIFSD; not fully specified (C-terminus); printed as D-S-H-H-F-H-R-E-Y-I-F-S-D) [Peptide 0608-38]
Conversion (%) (PAD4; Table 4, 13-mer peptides): 90%

D-S-Q-F-A-H-R-N-A-S-A-S-D (DSQFAHRNASASD) [Peptide 0735-28]
Conversion (%) (PAD2): 35%

D-S-K-K-H-F-R-G-K-L-Y-S-D (DSKKHFRGKLYSD; not fully specified (C-terminus); printed as D-S-K-K-H-F-R-G-K-L-Y-S-D) [Peptide 0708-32]
Conversion by PAD2 (%) (PAD2): 96% | Conversion (PAD4): 24 | Conversion by PAD4 (%) (PAD4): 22%

D-S-H-K-H-S-R-E-W-L-W-S-D (DSHKHSREWLWSD; not fully specified (C-terminus); printed as D-S-H-K-H-S-R-E-W-L-W-S-D) [Peptide 0608-36]
Conversion by PAD2 (%) (PAD2): 97% | Conversion (%) (PAD4; Table 4, 13-mer peptides): 90% | Conversion by PAD4 (%) (PAD4): 51%

D-S-Q-F-A-F-R-G-A-F-W-S-D (DSQFAFRGAFWSD) [Peptide 0735-30]
Conversion (%) (PAD2): 65%

D-S-K-H-F-H-R-D-F-I-Y-S-D (DSKHFHRDFIYSD; not fully specified (C-terminus); printed as D-S-K-H-F-H-R-D-F-I-Y-S-D) [Peptide 0608-23]
Conversion by PAD2 (%) (PAD2): 94% | Conversion by PAD4 (%) (PAD4): 69%

D-S-H-H-L-S-R-D-F-M-Y-S-D (DSHHLSRDFMYSD; not fully specified (C-terminus); printed as D-S-H-H-L-S-R-D-F-M-Y-S-D) [Peptide 0608-39]
Conversion (%) (PAD4; Table 4, 13-mer peptides): 95%

D-S-K-F-H-F-R-Y-A-V-A-S-D (DSKFHFRYAVASD; not fully specified (C-terminus); printed as D-S-K-F-H-F-R-Y-A-V-A-S-D) [Peptide 0735-35]
Conversion (%) (PAD2): 92% | Conversion by PAD2 (%) (PAD2): 92% | Conversion by PAD4 (%) (PAD4): <20%

D-S-N-K-H-H-R-D-H-L-Y-S-D (DSNKHHRDHLYSD) [Peptide 0708-17]
Conversion (PAD4): 38

D-S-K-K-L-H-R-D-H-M-E-S-D (DSKKLHRDHMESD; not fully specified (C-terminus); printed as D-S-K-K-L-H-R-D-H-M-E-S-D) [Peptide 0608-29]
Conversion by PAD2 (%) (PAD2): 90% | Conversion by PAD4 (%) (PAD4): 65%

D-S-K-K-H-D-R-D-F-L-Y-S-D (DSKKHDRDFLYSD; not fully specified (C-terminus); printed as D-S-K-K-H-D-R-D-F-L-Y-S-D) [Peptide 0608-31]
Conversion by PAD2 (%) (PAD2): 84(=L2) % | Conversion (%) (PAD4; Table 4, 13-mer peptides): 100% (=L2) | Conversion (PAD4): 45 (=L2) | Conversion by PAD4 (%) (PAD4): 58(=L2) % | conversion of L2 analogs by PAD4 (PAD4; relative to conversion of L2 (L2 = 100), single substitution at positions -4 to 4): 100%

F-F-D-S-H-K-L-D-R-E-Y-M-F-S-D (FFDSHKLDREYMFSD) [Peptide 0612-36]
Conversion (%) (PAD4; [1]): 100%

D-S-K-K-F-D-R-D-H-L-Y-S-D (DSKKFDRDHLYSD; not fully specified (C-terminus); printed as D-S-K-K-F-D-R-D-H-L-Y-S-D) [Peptide 0708-15]
Conversion by PAD2 (%) (PAD2): 90% | Conversion (PAD4): 51 | Conversion by PAD4 (%) (PAD4): 77%

D-S-Q-W-A-F-R-H-A-L-F-S-D (DSQWAFRHALFSD) [Peptide 0735-37]
Conversion (%) (PAD2): 95% | Conversion by PAD2 (%) (PAD2): 95% | Conversion by PAD4 (%) (PAD4): <20%

D-S-W-K-A-F-R-G-A-S-A-S-D (DSWKAFRGASASD) [Peptide 0735-29]
Conversion (%) (PAD2): 70%

F-F-D-S-K-H-K-D-R-E-Y-V-F-S-D (FFDSKHKDREYVFSD) [Peptide 0612-24]
Conversion (%) (PAD4; [1]): 100%

D-S-Q-F-A-Y-R-N-A-K-A-S-D (DSQFAYRNAKASD) [Peptide 0735-36]
Conversion (%) (PAD2): 74%

D-S-K-K-H-D-R-D-K-L-F-S-D (DSKKHDRDKLFSD; not fully specified (C-terminus); printed as D-S-K-K-H-D-R-D-K-L-F-S-D) [Peptide 0708-24]
Conversion (PAD4): 35

D-S-K-K-F-D-R-D-F-L-F-S-D (DSKKFDRDFLFSD; not fully specified (C-terminus); printed as D-S-K-K-F-D-R-D-F-L-F-S-D) [Peptide 0708-27]
Conversion (PAD4): 51

D-S-H-H-W-D-R-E-W-F-W-S-D (DSHHWDREWFWSD; not fully specified (C-terminus); printed as D-S-H-H-W-D-R-E-W-F-W-S-D) [Peptide 0608-40]
Conversion (%) (PAD4; Table 4, 13-mer peptides): 100%

F-F-D-S-H-H-L-S-R-D-F-M-Y-S-D (FFDSHHLSRDFMYSD) [Peptide 0612-41]
Conversion (%) (PAD4; [1]): 98%

D-S-K-K-H-D-R-D-H-L-F-S-D (DSKKHDRDHLFSD; not fully specified (C-terminus); printed as D-S-K-K-H-D-R-D-H-L-F-S-D) [Peptide 0708-21]
Conversion (PAD4): 53

F-F-D-S-K-H-W-D-R-D-H-F-E-S-D (FFDSKHWDRDHFESD) [Peptide 0612-27]
Conversion (%) (PAD4; [1]): 100%

D-S-H-K-F-D-R-D-F-L-Y-S-D (DSHKFDRDFLYSD; not fully specified (C-terminus); printed as D-S-H-K-F-D-R-D-F-L-Y-S-D) [Peptide 0708-28]
Conversion (PAD4): 53

F-F-D-S-K-H-H-H-R-E-Y-L-F-S-D (FFDSKHHHREYLFSD) [Peptide 0612-28]
Conversion (%) (PAD4; [1]): 100%

F-F-D-S-H-H-W-D-R-E-W-F-W-S-D (FFDSHHWDREWFWSD) [Peptide 0612-42]
Conversion (%) (PAD4; [1]): 100%

D-S-Q-W-A-F-R-N-A-F-A-S-D (DSQWAFRNAFASD) [Peptide 0735-38]
Conversion (%) (PAD2): 82%

D-S-N-W-H-H-R-D-H-L-Y-S-D (DSNWHHRDHLYSD) [Peptide 0708-19]
Conversion (PAD4): 45

D-S-Q-F-K-F-R-G-A-F-A-S-D (DSQFKFRGAFASD) [Peptide 0735-39]
Conversion (%) (PAD2): 80%

F-F-D-S-K-H-F-H-R-D-F-I-Y-S-D (FFDSKHFHRDFIYSD) [Peptide 0612-25]
Conversion (%) (PAD4; [1]): 100%

D-S-M-C-A-F-R-G-A-K-K-S-D (DSMCAFRGAKKSD) [Peptide 0735-31]
Conversion (%) (PAD2): 59%

D-S-K-K-W-S-R-E-Y-F-F-S-D (DSKKWSREYFFSD; not fully specified (C-terminus); printed as D-S-K-K-W-S-R-E-Y-F-F-S-D) [Peptide 0608-30]
Conversion (%) (PAD4; Table 4, 13-mer peptides): 90%

D-S-H-K-L-H-R-E-W-M-W-S-D (DSHKLHREWMWSD; not fully specified (C-terminus); printed as D-S-H-K-L-H-R-E-W-M-W-S-D) [Peptide 0608-44]
Conversion (%) (PAD4; Table 4, 13-mer peptides): 95%

D-S-K-W-F-D-R-D-H-L-Y-S-D (DSKWFDRDHLYSD; not fully specified (C-terminus); printed as D-S-K-W-F-D-R-D-H-L-Y-S-D) [Peptide 0708-16]
Conversion (PAD4): 70

D-S-W-W-H-K-R-D-K-L-Y-S-D (DSWWHKRDKLYSD) [Peptide 0708-23]
Conversion (PAD4): 18

F-F-D-S-H-H-K-D-R-D-H-V-E-S-D (FFDSHHKDRDHVESD) [Peptide 0612-39]
Conversion (%) (PAD4; [1]): 100%

F-F-D-S-K-H-H-S-R-D-H-L-E-S-D (FFDSKHHSRDHLESD) [Peptide 0612-23]
Conversion (%) (PAD4; [1]): 100%

D-S-K-H-K-D-R-E-Y-V-F-S-D (DSKHKDREYVFSD; not fully specified (C-terminus); printed as D-S-K-H-K-D-R-E-Y-V-F-S-D) [Peptide 0608-22]
Conversion (%) (PAD4; Table 4, 13-mer peptides): 90%

D-S-Q-W-A-F-R-G-A-F-A-S-D (DSQWAFRGAFASD) [Peptide 0735-33]
Conversion (%) (PAD2): 82%

D-S-Q-F-A-F-R-H-F-S-A-S-D (DSQFAFRHFSASD) [Peptide 0735-32]
Conversion (%) (PAD2): 85%

D-S-H-K-L-D-R-E-Y-M-F-S-D (DSHKLDREYMFSD; not fully specified (C-terminus); printed as D-S-H-K-L-D-R-E-Y-M-F-S-D) [Peptide 0608-34]
Conversion (%) (PAD4; Table 4, 13-mer peptides): 90%

F-F-D-S-K-K-L-H-R-D-H-M-E-S-D (FFDSKKLHRDHMESD) [Peptide 0612-31]
Conversion (%) (PAD4; [1]): 88%

F-F-D-S-H-K-W-S-R-D-H-F-E-S-D (FFDSHKWSRDHFESD) [Peptide 0612-47]
Conversion (%) (PAD4; [1]): 100%

D-S-Q-C-L-F-R-G-A-F-A-S-D (DSQCLFRGAFASD) [Peptide 0735-40]
Conversion (%) (PAD2): 73%

F-F-D-S-H-K-H-H-R-D-H-L-E-S-D (FFDSHKHHRDHLESD) [Peptide 0612-43]
Conversion (%) (PAD4; [1]): 100%
